Biological target: the molecule itself
Experiment: SEC-MALS

B1: Lcl C-terminal domain (Lcl-CTD), residues 252 to 401 (domain or fragment)
chain: MAHHHHHHVDDDDKMETGQVLAKSNDLDFNTMWVDPANSGIRRQLGDKALGGTVIYVNALGTHGLVVANSDQVNSNTWWDAQDSITNPAHFDNEGKLYSDWRLPTRFELNLIYMMRNELGNFLAGNYWSSIEKSSANSWVFNSKTGEIKDIAKSKTAAVRAVRAF
stoichiometry N: 3

From paper doi:10.1101/2023.12.10.570962 (bioRxiv, 2023)
